Experimental data taken from the supplement of paper PMC11246515.
± gives the standard deviation of the averaged measurements.

Experiment: total protein half-life in vivo (active degradation + dilution); higher = more stable protein
[1] = E. coli NCM3722 delta-clpP delta-lon delta-hslV, growth: N-lim chemostat, doubling time 6 h
[2] = E. coli NCM3722 delta-clpP, growth: N-lim chemostat, doubling time 6 h
[3] = E. coli NCM3722 delta-hslV, growth: N-lim chemostat, doubling time 6 h
[4] = E. coli NCM3722 delta-lon, growth: N-lim chemostat, doubling time 6 h
[5] = E. coli NCM3722 delta-smpB, growth: N-lim chemostat, doubling time 6 h
[6] = wild type E. coli NCM3722, growth: C-lim chemostat, doubling time 3 h
[7] = wild type E. coli NCM3722, growth: C-lim chemostat, doubling time 6 h
[8] = wild type E. coli NCM3722, growth: C-lim chemostat, doubling time 12 h
[9] = wild type E. coli NCM3722, growth: N-lim chemostat, doubling time 6 h
[10] = wild type E. coli NCM3722, growth: N-lim chemostat, doubling time 12 h
[11] = wild type E. coli NCM3722, growth: P-lim chemostat, doubling time 6 h
[12] = wild type E. coli NCM3722, growth: P-lim chemostat, doubling time 12 h

Row | Sequence | total protein half-life in vivo [1] | total protein half-life in vivo [2] | total protein half-life in vivo [3] | total protein half-life in vivo [4] | total protein half-life in vivo [5] | total protein half-life in vivo [6] | total protein half-life in vivo [7] | total protein half-life in vivo [8] | total protein half-life in vivo [9] | total protein half-life in vivo [10] | total protein half-life in vivo [11] | total protein half-life in vivo [12]
1 | MPHSYDYDAIVIGSGPGGEGAAMGLVKQGARVAVIERYQNVGGGCTHWGTIPSKALRHAVSRIIEFNQNPLYSDHSRLLRSSFADILNHADNVINQQTRMRQGFYERNHCEILQGNARFVDEHTLALDCPDGSVETLTAEKFVIACGSRPYHPTDVDFTHPRIYDSDSILSMHHEPRHVLIYGAGVIGCEYASIFRGMDVKVDLINTRDRLLAFLDQEMSDSLSYHFWNSGVVIRHNEEYEKIEGCDDGVIMHLKSGKKLKADCLLYANGRTGNTDSLALQNIGLETDSRGQLKVNSMYQTAQPHVYAVGDVIGYPSLASAAYDQGRIAAQALVKGEATAHLIEDIPTGIYTIPEISSVGKTEQQLTAMKVPYEVGRAQFKHLARAQIVGMNVGTLKILFHRETKEILGIHCFGERAAEIIHIGQAIMEQKGGGNTIEYFVNTTFNYPTMAEAYRVAALNGLNRLF | 4.47 ± 0.55 h | 3.95 ± 0.2 h | 4.17 ± 0.28 h | 3.85 ± 0.34 h | 4.01 ± 0.21 h | 2.74 ± 0.36 h | 6.09 ± 0.52 h | 10.5 ± 0.61 h | 4.46 ± 0.093 h | 6.87 ± 0.64 h | 6.15 ± 0.82 h | 12.2 ± 0.42 h
2 | MKKLVATAPRVAALVEYEDRAILANEVKIRVRFGAPKHGTEVVDFRAASPFIDEDFNGEWQMFTPRPADAPRGIEFGKFQLGNMVVGDIIECGSDVTDYAVGDSVCGYGPLSETVIINAVNNYKLRKMPQGSSWKNAVCYDPAQFAMSGVRDANVRVGDFVVVVGLGAIGQIAIQLAKRAGASVVIGVDPIAHRCDIARRHGADFCLNPIGTDVGKEIKTLTGKQGADVIIETSGYADALQSALRGLAYGGTISYVAFAKPFAEGFNLGREAHFNNAKIVFSRACSEPNPDYPRWSRKRIEETCWELLMNGYLNCEDLIDPVVTFANSPESYMQYVDQHPEQSIKMGVTF | 6.29 ± 0.3 h |  |  |  |  |  |  |  |  |  |  | 
3 | MQAATVVINRRALRHNLQRLRELAPASKMVAVVKANAYGHGLLETARTLPDADAFGVARLEEALRLRAGGITKPVLLLEGFFDARDLPTISAQHFHTAVHNEEQLAALEEASLDEPVTVWMKLDTGMHRLGVRPEQAEAFYHRLTQCKNVRQPVNIVSHFARADEPKCGATEKQLAIFNTFCEGKPGQRSIAASGGILLWPQSHFDWVRPGIILYGVSPLEDRSTGADFGCQPVMSLTSSLIAVREHKAGEPVGYGGTWVSERDTRLGVVAMGYGDGYPRAAPSGTPVLVNGREVPIVGRVAMDMICVDLGPQAQDKAGDPVILWGEGLPVERIAEMTKVSAYELITRLTSRVAMKYVD [P0A6B4] | 5.14 ± 0.16 h | 4.27 ± 0.085 h | 5.12 ± 0.41 h | 4.99 ± 0.29 h | 4.58 ± 1.3 h | 3.1 ± 0.046 h | 5.75 ± 0.44 h | 11 ± 1.9 h | 4.39 ± 0.14 h | 7.99 ± 0.34 h | 5.87 ± 0.2 h | 11.53 ± 0.057 h
4 | MSMVETAPSKIQVRNLNFYYGKFHALKNINLDIAKNQVTAFIGPSGCGKSTLLRTFNKMFELYPEQRAEGEILLDGDNILTNSQDIALLRAKVGMVFQKPTPFPMSIYDNIAFGVRLFEKLSRADMDERVQWALTKAALWNETKDKLHQSGYSLSGGQQQRLCIARGIAIRPEVLLLDEPCSALDPISTGRIEELITELKQDYTVVIVTHNMQQAARCSDHTAFMYLGELIEFSNTDDLFTKPAKKQTEDYITGRYG [P0AAH0] | 5.28 ± 0.14 h |  | 4.78 ± 0.28 h | 5.5 ± 0.56 h | 4.68 ± 0.39 h | 3.05 ± 0.094 h |  | 9.16 ± 0.51 h | 4.81 ± 0.24 h | 9.09 ± 0.47 h | 5.49 ± 0.53 h | 12.1 ± 0.36 h
5 | MISTVALFWALCVVCIVNMARYFSSLRALLVVLRNCDPLLYQYVDGGGFFTSHGQPNKQVRLVWYIYAQRYRDHHDDEFIRRCERVRRQFILTSALCGLVVVSLIALMIWH [P0A8S5] | 0.94 h | 0.778 h |  |  |  | 0.797 h | > 8 h |  |  |  |  | 
6 | MNKFLFAAALIVSGLLVGCNQLTQYTITEQEINQSLAKHNNFSKDIGLPGVADAHIVLTNLTSQIGREEPNKVTLTGDANLDMNSLFGSQKATMKLKLKALPVFDKEKGAIFLKEMEVVDATVQPEKMQTVMQTLLPYLNQALRNYFNQQPAYVLREDGSQGEAMAKKLAKGIEVKPGEIVIPFTD [P0AB26] |  |  | 6.63 ± 0.84 h | 6.72 ± 0.38 h | 6.38 ± 0.15 h | 3.55 ± 0.36 h | 5.37 ± 0.43 h | 11.9 ± 1.5 h | 5.75 ± 0.34 h | 13.4 ± 0.43 h | 6.01 ± 0.25 h | 12.36 ± 0.048 h
7 | MNTRWQQAGQKVKPGFKLAGKLVLLTALRYGPAGVAGWAIKSVARRPLKMLLAVALEPLLSRAANKLAQRYKR [P0AFV8] | 3.32 ± 0.39 h |  |  |  |  |  |  |  |  |  |  | 
8 | MKPNIHPEYRTVVFHDTSVDEYFKIGSTIKTDREIELDGVTYPYVTIDVSSKSHPFYTGKLRTVASEGNVARFTQRFGRFVSTKKGA [P0A7N1] |  |  |  |  | 2.8 h | 2.784 ± 0.022 h | 5.71 ± 0.51 h | 9.33 h |  |  | 6.22 h | 
9 | MTLEWWFAYLLTSIILSLSPGSGAINTMTTSLNHGYRGAVASIAGLQTGLAIHIVLVGVGLGTLFSRSVIAFEVLKWAGAAYLIWLGIQQWRAAGAIDLKSLASTQSRRHLFQRAVFVNLTNPKSIVFLAALFPQFIMPQQPQLMQYIVLGVTTIVVDIIVMIGYATLAQRIALWIKGPKQMKALNKIFGSLFMLVGALLASARHA [P0AG34] |  | 2.02 h | 1.51 h |  | 1.73 ± 0.21 h | 0.913 h | 1.47 h | 2.28 h | 2.62 h |  |  | 3.7 h
